Here are results for three molecules from patent US11325966.

Holding throughout (assay): cell-based or functional assay
Test [1] concerns the target JR-CSF I326A (HIV-1) (UniProt P20871).
Test [2] addresses 92BR020 R327A (HIV-1).
Test [3] addresses 92BR020 (HIV-1).
Test [4] concerns the target BG505 (T332N) N392A (HIV-1).
Test [5] has as its target 92BR020 N301A (HIV-1).
For test [6], the target named is 92BR020 D325A (HIV-1).
Test [7] has as its target JR-CSF Q328A (HIV-1) (UniProt P20871).
The target of test [8] is BG505 (T332N) N386A (HIV-1).
For test [9], the target named is JR-CSF (HIV-1) (UniProt P20871).
For test [10], the target named is 92BR020 N332A (HIV-1).
For test [11], the target named is BG505 (T332N) N156A (HIV-1).
Test [12] has as its target 92BR020 Q328A (HIV-1).
Test [13] deals with JR-CSF H33OA (HIV-1) (UniProt P20871).
For test [14], the target named is BG505 (T332N) N137A (HIV-1).
The target of test [15] is 92BR020 N301A + N332A (HIV-1).
In test [16] the target is JR-CSF N392A (HIV-1) (UniProt P20871).
Test [17] has as its target 92BR020 N156A (HIV-1).
Test [18] addresses 92BR020 H33OA (HIV-1).
The target in test [19] is JR-CSF N386A (HIV-1) (UniProt P20871).
Test [20] has as its target 92BR020 I326A (HIV-1).
The target of test [21] is 92BR020 N136A + N332A (HIV-1).
The target of test [22] is JR-CSF D325A (HIV-1) (UniProt P20871).
The target of test [23] is BG505 (T332N) (HIV-1).
The target of test [24] is 92BR020 N386A (HIV-1).
The target in test [25] is 92BR020 N392A (HIV-1).
The target of test [26] is JR-CSF N301A (HIV-1) (UniProt P20871).
For test [27], the target named is 92BR020 N156A + N332A (HIV-1).
Test [28] addresses JR-CSF G324A (HIV-1) (UniProt P20871).
In test [29] the target is 92BR020 N136A (HIV-1).
Test [30] concerns the target JR-CSF N362A (HIV-1) (UniProt P20871).
The target of test [31] is 92BR020 N136A + N156A + N301A (HIV-1).
Test [32] deals with JR-CSF N295A (HIV-1) (UniProt P20871).
The target of test [33] is BG505 (T332N) N295A (HIV-1).
The target of test [34] is BG505 (T332N) N301A (HIV-1).
Test [35] concerns the target JR-CSF R327A (HIV-1) (UniProt P20871).
Test [36] concerns the target JR-CSF N339A (HIV-1) (UniProt P20871).
The target in test [37] is JR-CSF N332A (HIV-1) (UniProt P20871).
In test [38] the target is 118-virus panel (Env of HIV-1 pseudoviruses).

As to control mAb 12A12 (antibody), the IC50 in TZM-bl assay stood at 0.278 µg/mL in [1]; 0.022 µg/mL in test [2]; 0.05 µg/mL in test [3]; 0.012 µg/mL in test [4]; 0.011 µg/mL in test [5]; 0.05 µg/mL in test [6]. Also, the IC50 in TZM-bl assay in [7] was 0.038 µg/mL; in test [8], 0.03 µg/mL; in test [9], 0.233 µg/mL; in test [10], 0.039 µg/mL; in test [11], 0.024 µg/mL; in test [12], 0.028 µg/mL. Further, the IC50 in TZM-bl assay in test [13] was 0.288 µg/mL; in test [14], 0.027 µg/mL; in [15], 7 ng/mL; in test [16], 0.23 µg/mL; in test [17], 0.035 µg/mL; in test [18] it was 0.073 µg/mL. Further, the IC50 in TZM-bl assay in [19] came to 0.332 µg/mL; in test [20], 0.011 µg/mL; in test [21], 0.025 µg/mL; in [22], 0.203 µg/mL; in [23], 0.03 µg/mL; in [24], 0.055 µg/mL. For the same molecule, the IC50 in TZM-bl assay in test [25] was determined as 0.105 µg/mL; in test [26], 0.01 µg/mL; in [27] it was 0.023 µg/mL; in test [28], 0.236 µg/mL; in [29], 0.027 µg/mL; in test [30] it was 0.267 µg/mL. The IC50 in TZM-bl assay amounted to 0.013 µg/mL in [31]; 0.203 µg/mL in [32]; 0.044 µg/mL in [33]; 0.027 µg/mL in test [34]; 0.131 µg/mL in test [35]; 0.028 µg/mL in test [36]. In [37], this molecule showed an IC50 in TZM-bl assay of 0.24 µg/mL.

Consider 354BG18 (antibody), for which the IC50 in TZM-bl assay in [10] was over 50 µg/mL; in test [15], over 50000 ng/mL; in test [16] it was 0.002 µg/mL; in test [21] it was over 50 µg/mL; in test [24], 0.003 µg/mL; in [27], over 50 µg/mL. For the same molecule, the IC50 in TZM-bl assay in test [37] was over 50 µg/mL.

B1: BG1 IgG (antibody, V domains shown)
VH: AEQLVESGGGLVPPGRSLRLSCSASGFYFPDYAMAWVRQAPGQGLQWVGFMRGWAYGGSAQFAAFAVGKFAISRDDGRNVVYLDVKNPTFEDTGVYFCAREQRNKDYRYGQEGFGYSYGMDVWGRGTTVVVST
VL: DIHMTQSPVSLSASVGDRVTITCRASHFIANYVNWYQQKPGKAPTLLIFESSTLQRGVPSRFSAYGDGTEFTLSINTLQPEDFASYICQQSHSPPVTFGAGTRVDQK
With B1, the geometric mean IC50 in TZM-bl assay in [38] was determined as 0.67 µg/mL.
